As usually defined, the Kd is the constant that tells how readily two partners part at equilibrium. A low value points to tighter binding.

This assay deals with GST-HktR (Pseudomonas syringae pv. actinidiae M228). Briefly: MST.

Regarding RpoD-His6 (natural protein), the equilibrium dissociation constant (Kd) was found to be 1790 nM.

The values are drawn from article doi:10.1101/2024.11.20.624486.
